Our source for the EC50 values is patent publication US20190256588A1 (BEIJING HANMI PHARM, published 2019).

As usually defined, the EC50 is the concentration that produces a half-maximal response.

First the molecules themselves.
B1: anti-human IL-17A humanized monoclonal antibody AS15799 (antibody, human IgG1, kappa, V domains shown)
VH: QVQVQESGPGLVKPSETLSLTCTVSGNSITSYYAWNWIRQPPGKGLEWMGYITYSGTTSYNPSLKSRVTISRDTSKNQFSLKLSSVTAADTAVYYCAREEYDDIYAVDYWGQGTLVTVSS
VL: IIVMTQSPLSLPVTLGQPASISCRSSQSLVHSNGNTYLHWYQQRPGQSPRRLIYKVYNRFSGVPDRFSGSGSGTDFTLKISRVEAEDVGVYYCSQSTHFPTFGQGTRLEIKR
B2: anti-human IL-17A humanized monoclonal antibody AS15802 (antibody, human IgG1, kappa, V domains shown)
VH: QVQLQESGPGLVKPSETLSLTCTVSGNSITSYYAWNWIRQPPGKGLEWMGYITYSGTTSYNPSLKSRVTISRDTSKNQFSLKLSSVTAADTAVYYCAREEYDDIYAVDYWGQGTLVTVSS
VL: IIVMTQSPLSLPVTLGQPASISCRSSQSLVHSNGNTYLHWYQQRPGQSPRLLIYKVYNRFSGVPDRFSGSGSGTDFTLKISRVEAEDVGVYFCSQSTHFPTFGQGTRLEIKR
B3: anti-human IL-17A humanized monoclonal antibody AS15805 (antibody, human IgG1, kappa, V domains shown)
VH: QVQVQESGPGLVKPSETLSLTCTVSGNSITSYYAWNWIRQPPGKGLEWMGYITYSGTTSYNPSLKSRITISRDTSKNQFSLKLSSVTAADTAVYYCAREEYDDIYAVDYWGQGTLVTVSS
VL: DIVMTQSPLSLPVTLGQPASISCRSSQSLVHSNGNTYLHWYQQRPGQSPRRLIYKVYNRFSGVPDRFSGSGSGTDFTLKISRVEAEDVGVYYCSQSTHFPTFGQGTRLEIKR
B4: anti-human IL-17A humanized monoclonal antibody AS15815 (antibody, human IgG1, kappa, V domains shown)
VH: QVQVQESGPGLVKPSETLSLTCTVSGNSITSYYAWNWIRQPPGKGLEWMGYITYSGTTSYNPSLKSRITISRDTSKNQFSLKLSSVTAADTAVYYCAREEYDDIYAVDYWGQGTLVTVSS
VL: DVVMTQSPLSLPVTLGQPASISCRSSQSLVHSNGNTYLHWFQQRPGQSPRLLIYKVYNRFSGVPDRFSGSGSGTDFTLKISRVEAEDVGVYYCSQSTHFPTFGQGTRLEIKR
B5: anti-human IL-17A humanized monoclonal antibody AS15803 (antibody, human IgG1, kappa, V domains shown)
VH: QVQVQESGPGLVKPSETLSLTCTVSGNSITSYYAWNWIRQPPGKGLEWMGYITYSGTTSYNPSLKSRITISVDTSKNQFSLKLSSVTAADTAVYYCAREEYDDIYAVDYWGQGTLVTVSS
VL: IIVMTQSPLSLPVTLGQPASISCRSSQSLVHSNGNTYLHWYQQRPGQSPRLLIYKVYNRFSGVPDRFSGSGSGTDFTLKISRVEAEDVGVYFCSQSTHFPTFGQGTRLEIKR
B6: anti-human IL-17A humanized monoclonal antibody AS15820 (antibody, human IgG1, kappa, V domains shown)
VH: QVQLQESGPGLVKPSETLSLTCTVSGNSITSYYAWNWIRQPPGKGLEWMGYITYSGTTSYNPSLKSRVTISVDTSKNQFSLKLSSVTAADTAVYYCAREEYDDIYAVDYWGQGTLVTVSS
VL: DIVMTQSPLSLPVTLGQPASISCRSSQSLVHSNGNTYLHWYQQRPGQSPRLLIYKVYNRFSGVPDRFSGSGSGTDFTLKISRVEAEDVGVYFCSQSTHFPTFGQGTRLEIKR
B7: anti-human IL-17A humanized monoclonal antibody AS15810 (antibody, human IgG1, kappa, V domains shown)
VH: QVQVQESGPGLVKPSETLSLTCTVSGNSITSYYAWNWIRQPPGKGLEWMGYITYSGTTSYNPSLKSRVTISVDTSKNQFSLKLSSVTAADTAVYYCAREEYDDIYAVDYWGQGTLVTVSS
VL: DVVMTQSPLSLPVTLGQPASISCRSSQSLVHSNGNTYLHWYQQRPGQSPRLLIYKVYNRFSGVPDRFSGSGSGTDFTLKISRVEAEDVGVYYCSQSTHFPTFGQGTRLEIKR
B8: monoclonal antibody secreted by Clone No. 88 (antibody, V domains shown)
VH: DVQVQESGPGLVKPSQSLSLTCTVTGNSITSYYAWNWIRQFPGNKLEWMGYITYSGTTSYNPSLKSRISITRDTSKNQFFLQLNSVTTEDTATYYCAREEYDDIYAVDYWGQGTSVTVSS
VL: IIVMTQTPLSLPVSLGDQASISCRSSQSLVHSNGNTYLHWYLQKPGQSPKLLIYKVYNRFSGVPDRFSGSGSGTDFTLKISRVEAEDLGVYFCSQSTHFPTFGGGTKLEIK
notes: Murine hybridoma antibody tested as culture supernatant; also called murine anti-human IL-17A monoclonal antibody

T1 sequence (Q16552 24-155 limits assumed): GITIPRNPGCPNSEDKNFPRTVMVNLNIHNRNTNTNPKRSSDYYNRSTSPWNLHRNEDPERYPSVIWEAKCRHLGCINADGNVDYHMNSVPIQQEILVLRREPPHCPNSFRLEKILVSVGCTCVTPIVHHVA

The first assay addresses T1, recombinant human IL-17A (human, UniProt Q16552 24-155).
T1 construct: also called IL-17A antigen
Put plainly: ELISA, recombinant human IL-17A coated at 1 µg/mL, HRP anti-human IgG, OD450nm. Here is the method: The antigen binding activity of humanized anti-human IL-17A monoclonal antibody was determined by ELISA. Recombinant human IL-17A (purchased from Sino Biological Inc.) was coated on a 96-well high-absorbing ELISA plate with a carbonate buffer solution with pH 9.6, the coating concentration was 1 μg/mL, the coating amount was 100 μL per well, and the coating was carried at 4° C. out overnight. The plate was washed five times with PBST and blocked with 300 μL/well of PBST containing 1% BSA and incubated at 25° C. for 1 hour. The plate was washed five times with PBST. […] The plate was washed five times with PBST. Then, horseradish peroxidase-labeled anti-human IgG antibody (Chemicon, Catalog Number AP309P) 1:2000 diluted in PBST containing 1% BSA was added, 100 μL was added to each well, incubated at 25° C. for 1 hour. The plate was washed five times with PBST. 100 μL/well of colorimetric substrate TMB was added and incubated at room temperature for 10 minutes. Color development was terminated by adding 100 μL/well of 1 M H2SO₄. The absorbance at 450 nm was read on a microplate reader.
For orientation: In an ELISA, binding on a coated surface is turned into a signal by an enzyme label.
For the molecule B1, the EC50 is 0.091 nM.
On the same count and under the same terms, under B2 stands 0.088 nM; under B3, 0.082 nM; under B4, 0.077 nM.
For the molecule B5, the EC50 was 0.087 nM.
Turning to B6, the EC50 was 0.089 nM.
Take B7: the EC50 was found to be 0.083 nM.

The next assay addresses T1, recombinant human IL-17A. In words: ELISA, recombinant human IL-17A coated at 1 µg/mL, HRP anti-mouse IgG, OD450nm. Here is the method: The plate was washed five times with PBST. […] The plate was washed five times with PBST. […] The plate was washed five times with PBST. 100 μL/well of colorimetric substrate TMB was added and incubated at room temperature for 10 minutes. Color development was terminated by adding 100 μL/well of 1 M H₂SO₄. The absorbance at 450 nm was read on a microplate reader.
B8: the EC50 is 0.165 nM.
